Reference: the supplement of paper PMC10724198
± gives the standard deviation of the averaged measurements.

How the values were obtained:
Saccharomyces cerevisiae [1] = assay: protein stability index of tFT-peptide fusion (C-terminal peptide) (PSI (0-1 scale)); higher = more stable (slower turnover)
Protocol: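 MPS profiling in S. cerevisiae of the tFT-X12 degron library: putative degron peptides plus stable controls, 12 aa, fused to the C-terminus of a sfGFP-mCherry timer. Cells are FACS-sorted into 8 mCherry/sfGFP bins and deep-sequenced. PSI runs from 0 (unstable) to 1 (stable). Backgrounds are wild type, das1Δ and doa10Δ at 30 °C, and wild type, das1Δ, cdc34-1 and cdc53-1 at 37 °C; 2-3 technical replicates each.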

Saccharomyces cerevisiae [2] = assay: as above; conditions: genetic background: wild type; temperature: 30 C
[3] = genetic background: cdc34-1, temperature: 37 C
[4] = genetic background: cdc53-1, temperature: 37 C
[5] = genetic background: das1 deletion, temperature: 30 C
[6] = genetic background: das1 deletion, temperature: 37 C
[7] = genetic background: doa10 deletion, temperature: 30 C
[8] = genetic background: wild type, temperature: 30 C
[9] = genetic background: wild type, temperature: 37 C
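Also: PSI is a weighted mean of sequencing reads over stability bins, variants kept only with over 10 reads, mCherry proximal and sfGFP distal, peptide attached via GGGS linker.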

Which protein stability index (Saccharomyces cerevisiae [1]; [3]) does the source give for KKKKKKKIKIMS here?
The protein stability index was 0.583 ± 0.0096.

What about the protein stability index (Saccharomyces cerevisiae [1]; [4]) of the same sequence?
The protein stability index was 0.706 ± 0.019.

And the protein stability index (Saccharomyces cerevisiae [1]; [5])?
The protein stability index was 0.636 ± 0.024.

What about the protein stability index (Saccharomyces cerevisiae [1]; [6]) of the same sequence?
Its protein stability index is 0.689 ± 0.018.

And the protein stability index (Saccharomyces cerevisiae [1]; [7])?
The protein stability index was 0.176 ± 0.03.

And the protein stability index (Saccharomyces cerevisiae [1]; [8])?
Its protein stability index is 0.232 ± 0.051.

And the protein stability index (Saccharomyces cerevisiae [1]; [9])?
Its protein stability index is 0.293 ± 0.032.

And the protein stability index (Saccharomyces cerevisiae [2])?
Its protein stability index is 0.266 ± 0.048.

For VDSTCLLITLLA, which protein stability index (Saccharomyces cerevisiae [1]; [3]) is on record?
Its protein stability index is 0.534 ± 0.1.

And the protein stability index (Saccharomyces cerevisiae [1]; [4])?
Its protein stability index is 0.4893 ± 0.0016.

What about the protein stability index (Saccharomyces cerevisiae [1]; [5]) of the same sequence?
Its protein stability index is 0.348 ± 0.036.

And the protein stability index (Saccharomyces cerevisiae [1]; [6])?
Its protein stability index is 0.506 ± 0.0053.

And the protein stability index (Saccharomyces cerevisiae [1]; [7])?
Its protein stability index is 0.245 ± 0.0068.

What about the protein stability index (Saccharomyces cerevisiae [1]; [8]) of the same sequence?
The protein stability index was 0.296 ± 0.023.

What about the protein stability index (Saccharomyces cerevisiae [1]; [9]) of the same sequence?
Its protein stability index is 0.456 ± 0.02.

What about the protein stability index (Saccharomyces cerevisiae [2]) of the same sequence?
The protein stability index was 0.41 ± 0.0047.

Which protein stability index (Saccharomyces cerevisiae [1]; [3]) does the source give for LFAIFLVVLLFR here?
The protein stability index was 0.106 ± 0.016.

And the protein stability index (Saccharomyces cerevisiae [1]; [4])?
The protein stability index was 0.089 ± 0.0072.

What about the protein stability index (Saccharomyces cerevisiae [1]; [5]) of the same sequence?
Its protein stability index is 0.195 ± 0.03.

What about the protein stability index (Saccharomyces cerevisiae [1]; [6]) of the same sequence?
Its protein stability index is 0.273 ± 0.0081.

And the protein stability index (Saccharomyces cerevisiae [1]; [7])?
The protein stability index was 0.297 ± 0.0092.

What about the protein stability index (Saccharomyces cerevisiae [1]; [8]) of the same sequence?
The protein stability index was 0.201 ± 0.028.

What about the protein stability index (Saccharomyces cerevisiae [1]; [9]) of the same sequence?
Its protein stability index is 0.2089 ± 0.0002.

What about the protein stability index (Saccharomyces cerevisiae [2]) of the same sequence?
The protein stability index was 0.219 ± 0.054.

What does the source list for CLFSPFCFILFC?
protein stability index (Saccharomyces cerevisiae [1]; [3]): 0.0319 ± 0.013; protein stability index (Saccharomyces cerevisiae [1]; [4]): 0.0391 ± 0.0022; protein stability index (Saccharomyces cerevisiae [1]; [5]): 0.0898 ± 0.0084; protein stability index (Saccharomyces cerevisiae [1]; [6]): 0.11 ± 0.012; protein stability index (Saccharomyces cerevisiae [1]; [7]): 0.285 ± 0.021; protein stability index (Saccharomyces cerevisiae [1]; [8]): 0.074 ± 0.011; protein stability index (Saccharomyces cerevisiae [1]; [9]): 0.0686 ± 0.019; protein stability index (Saccharomyces cerevisiae [2]): 0.12318 ± 9.1e-05

With AFCGRRGHQFYN as the sequence, how does the protein stability index (Saccharomyces cerevisiae [1]; [3]) read?
Its protein stability index is 0.61 ± 0.0073.

What about the protein stability index (Saccharomyces cerevisiae [1]; [4]) of the same sequence?
The protein stability index was 0.743 ± 0.016.

What about the protein stability index (Saccharomyces cerevisiae [1]; [5]) of the same sequence?
The protein stability index was 0.648 ± 0.018.

And the protein stability index (Saccharomyces cerevisiae [1]; [6])?
The protein stability index was 0.746 ± 0.037.

And the protein stability index (Saccharomyces cerevisiae [1]; [7])?
The protein stability index was 0.144 ± 0.0093.

What about the protein stability index (Saccharomyces cerevisiae [1]; [8]) of the same sequence?
Its protein stability index is 0.164 ± 0.014.

And the protein stability index (Saccharomyces cerevisiae [1]; [9])?
Its protein stability index is 0.42 ± 0.027.

What about the protein stability index (Saccharomyces cerevisiae [2]) of the same sequence?
Its protein stability index is 0.263 ± 0.061.

What does the source list for DQPLWIGVLAYC?
protein stability index (Saccharomyces cerevisiae [1]; [3]): 0.434 ± 0.04; protein stability index (Saccharomyces cerevisiae [1]; [4]): 0.4712 ± 0.00085; protein stability index (Saccharomyces cerevisiae [1]; [5]): 0.31 ± 0.04; protein stability index (Saccharomyces cerevisiae [1]; [6]): 0.502 ± 0.011; protein stability index (Saccharomyces cerevisiae [1]; [7]): 0.272 ± 0.0047; protein stability index (Saccharomyces cerevisiae [1]; [8]): 0.325 ± 0.013; protein stability index (Saccharomyces cerevisiae [1]; [9]): 0.487 ± 0.022; protein stability index (Saccharomyces cerevisiae [2]): 0.455 ± 0.025

Which results are given for LDLSSVFILYFN?
protein stability index (Saccharomyces cerevisiae [1]; [3]): 0.599 ± 0.041; protein stability index (Saccharomyces cerevisiae [1]; [4]): 0.6735 ± 0.0021; protein stability index (Saccharomyces cerevisiae [1]; [5]): 0.518 ± 0.0058; protein stability index (Saccharomyces cerevisiae [1]; [6]): 0.709 ± 0.048; protein stability index (Saccharomyces cerevisiae [1]; [7]): 0.2653 ± 0.0025; protein stability index (Saccharomyces cerevisiae [1]; [8]): 0.28 ± 0.028; protein stability index (Saccharomyces cerevisiae [1]; [9]): 0.54398 ± 0.00036; protein stability index (Saccharomyces cerevisiae [2]): 0.374 ± 0.022

Which results are given for SSVLWVMFVFFY?
protein stability index (Saccharomyces cerevisiae [1]; [3]): 0.313 ± 0.026; protein stability index (Saccharomyces cerevisiae [1]; [4]): 0.387 ± 0.0063; protein stability index (Saccharomyces cerevisiae [1]; [5]): 0.309 ± 0.058; protein stability index (Saccharomyces cerevisiae [1]; [6]): 0.442 ± 0.0026; protein stability index (Saccharomyces cerevisiae [1]; [7]): 0.264 ± 0.0091; protein stability index (Saccharomyces cerevisiae [1]; [8]): 0.253 ± 0.067; protein stability index (Saccharomyces cerevisiae [1]; [9]): 0.387 ± 0.027; protein stability index (Saccharomyces cerevisiae [2]): 0.436 ± 0.058

For CFFMVGFVFYFV, which protein stability index (Saccharomyces cerevisiae [1]; [3]) is on record?
The protein stability index was 0.286 ± 0.031.

And the protein stability index (Saccharomyces cerevisiae [1]; [4])?
Its protein stability index is 0.412 ± 0.027.

What about the protein stability index (Saccharomyces cerevisiae [1]; [5]) of the same sequence?
The protein stability index was 0.291 ± 0.039.

And the protein stability index (Saccharomyces cerevisiae [1]; [6])?
Its protein stability index is 0.505 ± 0.017.

What about the protein stability index (Saccharomyces cerevisiae [1]; [7]) of the same sequence?
The protein stability index was 0.288 ± 0.014.

What about the protein stability index (Saccharomyces cerevisiae [1]; [8]) of the same sequence?
The protein stability index was 0.294 ± 0.03.

And the protein stability index (Saccharomyces cerevisiae [1]; [9])?
Its protein stability index is 0.438 ± 0.0094.

And the protein stability index (Saccharomyces cerevisiae [2])?
The protein stability index was 0.296 ± 0.014.

Which protein stability index (Saccharomyces cerevisiae [1]; [3]) does the source give for VVGLSLLFSGGV here?
Its protein stability index is 0.687 ± 0.011.

And the protein stability index (Saccharomyces cerevisiae [1]; [4])?
Its protein stability index is 0.755 ± 0.021.

What about the protein stability index (Saccharomyces cerevisiae [1]; [5]) of the same sequence?
Its protein stability index is 0.644 ± 0.015.

And the protein stability index (Saccharomyces cerevisiae [1]; [6])?
The protein stability index was 0.7583 ± 0.0016.

And the protein stability index (Saccharomyces cerevisiae [1]; [7])?
Its protein stability index is 0.662 ± 0.025.

And the protein stability index (Saccharomyces cerevisiae [1]; [8])?
Its protein stability index is 0.6572 ± 0.0032.

What about the protein stability index (Saccharomyces cerevisiae [1]; [9]) of the same sequence?
The protein stability index was 0.727 ± 0.0093.

And the protein stability index (Saccharomyces cerevisiae [2])?
The protein stability index was 0.694 ± 0.021.

Which protein stability index (Saccharomyces cerevisiae [1]; [3]) does the source give for LCFFLAFSFVFF here?
The protein stability index was 0.253 ± 0.017.

What about the protein stability index (Saccharomyces cerevisiae [1]; [4]) of the same sequence?
Its protein stability index is 0.324 ± 0.011.

And the protein stability index (Saccharomyces cerevisiae [1]; [5])?
Its protein stability index is 0.231 ± 0.025.

What about the protein stability index (Saccharomyces cerevisiae [1]; [6]) of the same sequence?
The protein stability index was 0.382 ± 0.026.

And the protein stability index (Saccharomyces cerevisiae [1]; [7])?
The protein stability index was 0.289 ± 0.00096.

What about the protein stability index (Saccharomyces cerevisiae [1]; [8]) of the same sequence?
The protein stability index was 0.236 ± 0.022.

What about the protein stability index (Saccharomyces cerevisiae [1]; [9]) of the same sequence?
The protein stability index was 0.3374 ± 0.0016.

And the protein stability index (Saccharomyces cerevisiae [2])?
Its protein stability index is 0.296 ± 0.0099.

How did the protein stability index (Saccharomyces cerevisiae [1]; [3]) turn out when GVCSFFVCVFFV was run?
The protein stability index was 0.195 ± 0.0042.

And the protein stability index (Saccharomyces cerevisiae [1]; [4])?
The protein stability index was 0.319 ± 0.034.

And the protein stability index (Saccharomyces cerevisiae [1]; [5])?
The protein stability index was 0.233 ± 0.036.

What about the protein stability index (Saccharomyces cerevisiae [1]; [6]) of the same sequence?
The protein stability index was 0.41 ± 0.005.

What about the protein stability index (Saccharomyces cerevisiae [1]; [7]) of the same sequence?
The protein stability index was 0.162 ± 0.008.

And the protein stability index (Saccharomyces cerevisiae [1]; [8])?
Its protein stability index is 0.177 ± 0.024.

And the protein stability index (Saccharomyces cerevisiae [1]; [9])?
Its protein stability index is 0.303 ± 0.0089.

What about the protein stability index (Saccharomyces cerevisiae [2]) of the same sequence?
The protein stability index was 0.291 ± 0.0064.
